From paper doi:10.1101/2020.01.24.918722

What was measured:
[1] = target: mNrxn1β^+SS4-FLAG (C-terminally FLAG-tagged mouse Nrxn1β containing the SS4 insert) (mouse) (UniProt P0DI97); assay: saturation binding on cells with Scatchard analysis
[2] = target: mNrxn1β^−SS4-FLAG (C-terminally FLAG-tagged mouse Nrxn1β lacking the SS4 insert) (mouse); assay: as above

Sequence of mNrxn1β^+SS4-FLAG (C-terminally FLAG-tagged mouse Nrxn1β containing the SS4 insert) (mouse) (P0DI97 47-468): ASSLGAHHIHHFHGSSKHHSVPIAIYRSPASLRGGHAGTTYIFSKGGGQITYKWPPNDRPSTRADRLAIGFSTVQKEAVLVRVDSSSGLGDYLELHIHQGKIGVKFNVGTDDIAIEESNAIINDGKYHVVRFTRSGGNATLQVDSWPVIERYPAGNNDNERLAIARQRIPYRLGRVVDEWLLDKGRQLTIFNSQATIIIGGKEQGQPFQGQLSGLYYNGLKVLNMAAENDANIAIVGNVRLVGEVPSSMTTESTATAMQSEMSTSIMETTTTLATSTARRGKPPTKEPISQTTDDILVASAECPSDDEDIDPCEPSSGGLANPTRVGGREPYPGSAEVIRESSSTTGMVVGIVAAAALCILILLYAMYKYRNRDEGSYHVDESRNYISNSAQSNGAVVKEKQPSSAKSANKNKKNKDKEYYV

Ig-Clstn3 (Ig-fused calsyntenin-3) (from UniProt Q99JH7 20-956) (Fc fusion)
Kd [1]: 0.0514 µM | Kd [2]: 0.106 µM
